B1: r11_951_TrROS_Hall (parent)
chain: KKKYVIKVYFEDTGKEVEIEAESKEEALEAAKRLAEELGLKIKKVEIYP

Variants of B1 are the subject of this series. The series can be described thus: folding stability dG (cDNA display proteolysis); higher = more stable. As to conditions: PBS, room temperature.
KKKYVIKVYFEDTGKEVEIEAESKEEALEAAKRLAEELGLVIKKVEIYP [K41V]: the “folding stability dG” value was found to be 4.34 kcal/mol. The same measure for KKKYVIKVYFEDTGKEVEIEAESKEEALEAAKRLAEELGLQIKKVEIYP [K41Q]: 4.02 kcal/mol; for KKKYVIKVYFEDTGKEVEIEAESKEEALEAAKRLAEELGLYIKKVEIYP [K41Y]: 4.5 kcal/mol. Then KKKYVIKVYFEDTGKEVEIWAESKEEALEAAKRLAEELGLKIKKVEIYP [E20W], with 4.49 kcal/mol. For KKKYVIKVYFEDTGKEVEIEAESKEEALEAAKRLAEELGLKLKKVEIYP [I42L], the “folding stability dG” value came to 4.32 kcal/mol.

Regarding KKKYVIKVYFEDTGKEVEIEAESKEEALEAAKRLAEELGLKQKKVEIYP [I42Q], the “folding stability dG” value amounted to 2.53 kcal/mol. Consider KKKYMIKVYFEDTGKEVEIEAESKEEALEAAKRLAEELGLKIKKVEIYP [V5M], for which the “folding stability dG” value is 4.31 kcal/mol.

For KKKYVIKVYFEDTGKEVEDEAESKEEALEAAKRLAEELGLKIKKVEIYP [I19D], the “folding stability dG” value stood at 3.07 kcal/mol. Consider KKKYVIKVYFEDTGKEVEYEAESKEEALEAAKRLAEELGLKIKKVEIYP [I19Y], for which the “folding stability dG” value was 4.49 kcal/mol. For the variant KKKYVIKVYFEVTGKEVEIEAESKEEALEAAKRLAEELGLKIKKVEIYP [D12V], the “folding stability dG” value was found to be 4.34 kcal/mol.

On to KKKYVIKVYFEDTGTEVEIEAESKEEALEAAKRLAEELGLKIKKVEIYP [K15T], for which the “folding stability dG” value is 4.5 kcal/mol. KKKYVIKVYFEDTGKEVEIEAESKEEALEAAKRLAHELGLKIKKVEIYP [E36H]: the “folding stability dG” value came to 4.56 kcal/mol. Take KKKYVIKVYFEDTGKEVEIEAESKEEAVEAAKRLAEELGLKIKKVEIYP [L28V]: the “folding stability dG” value was 4.51 kcal/mol. Take KKKYVIKVYFEDTGKEVEIEAESKEEAYEAAKRLAEELGLKIKKVEIYP [L28Y]: the “folding stability dG” value stood at 4.57 kcal/mol.

Regarding KKKYVIKVYFEDTGKEVEIEAESKEEAAEAAKRLAEELGLKIKKVEIYP [L28A], the “folding stability dG” value is 4.28 kcal/mol. The same measure for KKKYVIKVYFEDTGKEVEIEAESKEEALEAAKRLDEELGLKIKKVEIYP [A35D]: 2.58 kcal/mol; for KKKYVIKVYFEDTGKEVEIEAESLEEALEAAKRLAEELGLKIKKVEIYP [K24L]: 4.48 kcal/mol; for KKKYVIKVYFEDTGKEVEIEAESDEEALEAAKRLAEELGLKIKKVEIYP [K24D]: 4.37 kcal/mol.

KKKYVIKVYFEDTGKEVEIEAESKEEALEAAKRLAEELGLKIKKIEIYP [V45I]: the “folding stability dG” value came to 3.98 kcal/mol. The same measure for KKKYVIKVYFEDTGKEVEIEAESKEEALEAAKRLAEELGLKIKKYEIYP [V45Y]: 4.45 kcal/mol. Turning to KKKYVIKVYFEDTGKEVEIEAESKEEALEAAKRLAEELGLKIKKDEIYP [V45D], the “folding stability dG” value came to 2.62 kcal/mol. As for KKKYVIKVYFEDTGKEVEIEAESKEEALEAAVRLAEELGLKIKKVEIYP [K32V], the “folding stability dG” value amounted to 4.35 kcal/mol.

With KKKYVIKVYFEDTGKEEEIEAESKEEALEAAKRLAEELGLKIKKVEIYP [V17E], the “folding stability dG” value stood at 4.29 kcal/mol. Then KKKYVIKVYFEDTGKEQEIEAESKEEALEAAKRLAEELGLKIKKVEIYP [V17Q], with 4 kcal/mol; and KKKYVIKVYFEDTGKENEIEAESKEEALEAAKRLAEELGLKIKKVEIYP [V17N], with 3.71 kcal/mol.

Take KKKYVIKVYFEDTGKEKEIEAESKEEALEAAKRLAEELGLKIKKVEIYP [V17K]: the “folding stability dG” value was 4.07 kcal/mol. With KKKYVIKVYFEDTGKEREIEAESKEEALEAAKRLAEELGLKIKKVEIYP [V17R], the “folding stability dG” value is 4.29 kcal/mol. In the case of KKKYVIKVYFEDTGKEVEIEAEWKEEALEAAKRLAEELGLKIKKVEIYP [S23W], the “folding stability dG” value is 4.13 kcal/mol. Then KKKYVIKVYFEDTGKEVEIEAEIKEEALEAAKRLAEELGLKIKKVEIYP [S23I], with 4 kcal/mol. Consider KKKYVIKVYFEDTGKEVEIEWESKEEALEAAKRLAEELGLKIKKVEIYP [A21W], for which the “folding stability dG” value was determined as 3.72 kcal/mol. As for KKKYVIKVYFEDTGKEVEIEAESKEEALEAAKRLAEELGMKIKKVEIYP [L40M], the “folding stability dG” value came to 4.31 kcal/mol. The same measure for KKKYVIKVYFEDTGKEVEIEAESKEERLEAAKRLAEELGLKIKKVEIYP [A27R]: 1.78 kcal/mol. Turning to KKKFVIKVYFEDTGKEVEIEAESKEEALEAAKRLAEELGLKIKKVEIYP [Y4F], the “folding stability dG” value was determined as 4.2 kcal/mol. In the case of KKKRVIKVYFEDTGKEVEIEAESKEEALEAAKRLAEELGLKIKKVEIYP [Y4R], the “folding stability dG” value worked out at 2.98 kcal/mol.

With KKKDVIKVYFEDTGKEVEIEAESKEEALEAAKRLAEELGLKIKKVEIYP [Y4D], the “folding stability dG” value is 2.33 kcal/mol. With KKKGVIKVYFEDTGKEVEIEAESKEEALEAAKRLAEELGLKIKKVEIYP [Y4G], the “folding stability dG” value came out at 2.47 kcal/mol. On to KKKCVIKVYFEDTGKEVEIEAESKEEALEAAKRLAEELGLKIKKVEIYP [Y4C], for which the “folding stability dG” value worked out at 3.85 kcal/mol.

Regarding KKKYVIKVYFEDTGKEVEIEAESKEEALEAAKYLAEELGLKIKKVEIYP [R33Y], the “folding stability dG” value is 4.63 kcal/mol. Then KKKYVIKVYFEDTGKEVEIEAESKEEALEAAKELAEELGLKIKKVEIYP [R33E], with 4.03 kcal/mol. For the variant KKKYVIKVQFEDTGKEVEIEAESKEEALEAAKRLAEELGLKIKKVEIYP [Y9Q], the “folding stability dG” value worked out at 4.09 kcal/mol.

As to KKKYVIKVKFEDTGKEVEIEAESKEEALEAAKRLAEELGLKIKKVEIYP [Y9K], the “folding stability dG” value came out at 3.98 kcal/mol. Consider KKKYVIKVHFEDTGKEVEIEAESKEEALEAAKRLAEELGLKIKKVEIYP [Y9H], for which the “folding stability dG” value is 4.26 kcal/mol. Regarding KKKYVIKVTFEDTGKEVEIEAESKEEALEAAKRLAEELGLKIKKVEIYP [Y9T], the “folding stability dG” value came out at 4.22 kcal/mol. Then KKKYVIKVYFEDTGKEVEIEAESKEEALEAAKRLAEELGLKIKKVEYYP [I47Y], with 4.47 kcal/mol; and KKKYVIKVYFEDTGKEVEIEAESKEEALEAAKRLAEELGLKIKKVEKYP [I47K], with 3.7 kcal/mol; and KKKYVIKVYFEDTGKEVEIEAESKEEALEAAKRLAEELGLKIKKVEIVP [Y48V], with 4.45 kcal/mol.

As to KKKYVIKVYFCDTGKEVEIEAESKEEALEAAKRLAEELGLKIKKVEIYP [E11C], the “folding stability dG” value turned out to be 4.63 kcal/mol. Then KKKYVIKVYFEDTGKEVEIEAESKEEALEAAKRLAEELGLKIKKVTIYP [E46T], with 4.36 kcal/mol; and KKKYVIKVYFEDTGKEVEIEAESKEEALEAAKRLAEELGLKIKKVCIYP [E46C], with 4.15 kcal/mol; and KKKYVIKVYFEDTGKEVEIEAESKVEALEAAKRLAEELGLKIKKVEIYP [E25V], with 4.36 kcal/mol.

KKTYVIKVYFEDTGKEVEIEAESKEEALEAAKRLAEELGLKIKKVEIYP [K3T]: the “folding stability dG” value amounted to 4.4 kcal/mol. Take KKPYVIKVYFEDTGKEVEIEAESKEEALEAAKRLAEELGLKIKKVEIYP [K3P]: the “folding stability dG” value came to 4.49 kcal/mol. Then KKSYVIKVYFEDTGKEVEIEAESKEEALEAAKRLAEELGLKIKKVEIYP [K3S], with 4.52 kcal/mol.

Values taken from the MegaScale stability set (Tsuboyama et al. 2023).
